Assays:
Complement C5 [1] = target: T1, Complement C5 (Homo sapiens, UniProt P01031;P01031 P01031:19-673,P01031:678-1676); test: filter; MgPBS 37C; details: tags: Quidel
Procedure: (§1) Individual cloned DNA was T7 transcribed with α-[³²P]-ATP and the full length [³²P]-2′-NH₂-RNA or 2′-F-RNA was gel-purified (as above). RNA was suspended at approximately 5,000 cpm per 30 μL sample (<10 pM), and aliquots were incubated with various concentrations of C1q, C3 or C5 in MgPBS for 10 minutes at 37° C. Samples were then filtered through nitrocellulose, the filters washed with buffer and dried under an infrared lamp, and counted with addition of scintillation fluid (Ecoscint A, National Diagnostics, Atlanta, Ga.). A background sample of RNA alone was run in parallel. […] Filters were washed and counted.
Sequences were grouped according to homology and function.

Complement C5 [2] = target: T1, Complement C5; test: inhibition; inhibition of C5a release, zymosan-treated human serum; details: tags: Quidel
Procedure: Nucleic Acid Ligand-C5 interaction that inhibits cleavage of C5 would prevent formation of the C5b and MAC assembly. […] For this experiment, dilutions of clone C6 were incubated with whole human serum in GVB⁺⁺ (veronal-buffered saline containing calcium, magnesium and 1% gelatin) plus addition of zymosan for 30 minutes at 37° C. The samples were then quenched with EDTA-buffer and spun, and supernatants were assayed for C5a by radioimrnmunoassay (RIA) (Wagner and Hugli (1984) Anal. Biochem. 136:75).

Complement C1q = Complement C1q (UniProt P02745;P02746;P02747 P02745:23-245,P02746:28-253,P02747:29-245); test: filter; MgPBS 37C; text states range 0.29-3.9 nM for best ligands; details: tags: Quidel; chain copies: 6
Chain of Complement C1q (P02745 23-245, chain 1 of 3): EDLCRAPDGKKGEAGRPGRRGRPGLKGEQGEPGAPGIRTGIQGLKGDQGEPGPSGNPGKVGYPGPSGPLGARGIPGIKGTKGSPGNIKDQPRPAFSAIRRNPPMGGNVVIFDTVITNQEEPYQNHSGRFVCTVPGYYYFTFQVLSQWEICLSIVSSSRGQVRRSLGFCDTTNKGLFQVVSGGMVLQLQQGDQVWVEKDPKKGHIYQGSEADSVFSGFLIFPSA
Chain of Complement C1q (P02746 28-253, chain 2 of 3): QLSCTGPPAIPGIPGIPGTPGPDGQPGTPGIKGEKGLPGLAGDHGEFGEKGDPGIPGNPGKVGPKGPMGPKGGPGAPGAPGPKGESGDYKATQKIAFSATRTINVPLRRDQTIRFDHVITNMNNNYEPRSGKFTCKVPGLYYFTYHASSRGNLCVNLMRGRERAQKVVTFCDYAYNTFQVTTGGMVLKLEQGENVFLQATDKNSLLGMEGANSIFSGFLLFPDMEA
Chain of Complement C1q (P02747 29-245, chain 3 of 3): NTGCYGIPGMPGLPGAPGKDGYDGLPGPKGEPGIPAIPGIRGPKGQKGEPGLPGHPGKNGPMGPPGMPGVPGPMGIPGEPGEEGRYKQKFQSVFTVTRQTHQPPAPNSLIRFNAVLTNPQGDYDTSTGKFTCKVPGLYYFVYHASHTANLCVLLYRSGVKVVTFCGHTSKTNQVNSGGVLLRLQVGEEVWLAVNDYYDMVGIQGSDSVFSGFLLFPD
Procedure: as §1

B1: C6 (ssRNA)
RNA: GGGAGGACGAUGCGGUCUCAUGCGUCGAGUGUGAGUUUACCUUCGUCAGACGACUCGCCCGA
modifications: 2'-F pyrimidines
**Q.** With B1 as the binder, how does the Kd (Complement C5 [1]) read?
**A.** 30 nM

**Q.** And the Ki (Complement C5 [2])?
**A.** ~100 nM

B2: C1q clone 23 (ssRNA)
RNA: GGGAGGACGAUGCGGCACUCACCUUCAUAUUGGCCGCCAUCCCCAGGGUUGAGCCCAGACACAGCAGACGACUCGCCCGA
modifications: 2'-NH2 pyrimidines
**Q.** B2 was tested. Which Kd (Complement C1q) did it give?
**A.** 23 nM

Source: patent publication US20030078221, “High affinity nucleic acid ligands of complement system proteins” (Gilead Sciences, Inc., published 2003)
